Binding result and Kd data for three molecules are collected here from patent WO2022065344A1 (dated 2022).

For test [1], the target named is T1, HTLV-1 envelope protein gp62 extracellular region (gp46), expressed in 293T cells together with GLUT1 (HTLV-1, UniProt P03381 21-312).
T1 construct: also called HTLV-1-expressing cells; gp62-expressing cells
T1 sequence: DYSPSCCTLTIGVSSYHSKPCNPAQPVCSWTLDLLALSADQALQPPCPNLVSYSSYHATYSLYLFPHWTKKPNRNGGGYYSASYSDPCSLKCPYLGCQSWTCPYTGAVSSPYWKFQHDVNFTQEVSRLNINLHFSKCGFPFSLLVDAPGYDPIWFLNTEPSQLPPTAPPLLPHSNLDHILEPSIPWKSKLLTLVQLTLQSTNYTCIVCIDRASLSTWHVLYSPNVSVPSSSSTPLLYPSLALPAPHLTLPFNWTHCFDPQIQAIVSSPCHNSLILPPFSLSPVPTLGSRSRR
The test can be described thus: flow cytometry on 293T cells transfected with HTLV-1 and GLUT1 vectors against pcDNA3.1 control cells. (In general: In flow cytometry, cells or beads pass a laser one at a time.)

The target of test [2] is T2, gp46 partial peptide 188-199 with H193 replaced by Ala (HTLV-1).
T2 peptide: PPLLPASNLDHI
The test can be described thus: ELISA on Ala-substituted gp46 188-199 peptides. (ELISA stands for enzyme-linked immunosorbent assay.)

The target in test [3] is T3, gp46 partial peptide 188-199 with L196 replaced by Ala (HTLV-1).
T3 peptide: PPLLPHSNADHI
The test can be described thus: ELISA on Ala-substituted gp46 188-199 peptides.

Test [4] concerns the target T4, gp46 partial peptide 188-199 with N195 replaced by Ala (HTLV-1).
T4 peptide: PPLLPHSALDHI
The test can be described thus: ELISA on Ala-substituted gp46 188-199 peptides.

Test [5] addresses T5, gp46 partial peptide 188-199 with S194 replaced by Ala (HTLV-1).
T5 peptide: PPLLPHANLDHI
The test can be described thus: ELISA on Ala-substituted gp46 188-199 peptides.

Test [6] deals with T6, gp46 partial peptide 188-199 with P192 replaced by Ala (HTLV-1).
T6 peptide: PPLLAHSNLDHI
The test can be described thus: ELISA on Ala-substituted gp46 188-199 peptides.

Test [7] deals with T7, gp46 partial peptide 188-199 with L191 replaced by Ala (HTLV-1).
T7 peptide: PPLAPHSNLDHI
The test can be described thus: ELISA on Ala-substituted gp46 188-199 peptides.

The target in test [8] is T8, HTLV-1 gp46 peptide 180-204 (HTLV-1).
T8 construct: also called HTLV-1 gp46 peptide 180 to 204; gp46 antigen peptide
T8 peptide: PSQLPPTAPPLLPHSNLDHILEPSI
The test can be described thus: SPR, Biacore T200, antibody amine-coupled on CM5 chip, peptide as analyte, affinity (steady-state) analysis.

B1: rat anti-HTLV-1 monoclonal antibody rMAb98 (antibody, V domains shown)
VH: EVQLVESGGGLVQPGWSMKLSCAASGFTFSGSPMGWVRQAPTKGLEWVATISPTGATTYYRDSVKGRFTISRDNAKATLYLQMNSLRSEDTATYYCTREGYGYSSFDYWGQGVMVTVSS
VL: DIVMTQSPSSLAVSAGETVTINCKSSQSLLFSGYQKNYLAWYQQKPGQSPRLLIYWASTRQSGVPDRFIGSGSGTDFTLTVSSVQAEDVATYYCQQYFDTPLTFGSGTKLEIKR
Turning to B1, the binding result in test [1] is recorded as “binds”.

B2: rat anti-HTLV-1 monoclonal antibody rMAb1 (antibody, V domains shown)
VH: EIQLVESGGGLVQPGRSMKLSCEALGFTFGGFPMAWVRQAPTKGLEWVATISPGAVNTYYGDSVKGRFTISRDNAKSTLYLQMNSLRSEDTATYYCVREGYGFSSFEYWGQGVTVTVSP
VL: DIVMTQSPSSLAVSAGETVTIKCKSSQTLLYSGNQKNYLAWYQQKPGQSPKLLICWASTRQSSVPDRFIGSGSGTDFTLTISSVQAEDLAIYYCQQYFATPITFGSGTKLEIKR
For orientation: Kd means a measure of binding affinity in units of concentration. Regarding B2, the binding result in test [2], in test [3], in test [4], in test [5], in test [6] and in test [7] was “binds” in each case. Besides, the binding result in test [1] is listed as “binds”. For the same molecule, the Kd in test [8] was 3.49 nM.

B3: humanized anti-HTLV-1 antibody hMAb1_H1L12 (antibody, human IgG1, kappa, V domains shown)
VH: EVQLVESGGGLVQPGGSLRLSCAASGFTFGGFPMAWVRQAPGKGLEWVSTISPGAVNTYYADSVKGRFTISRDNSKNTLYLQMNSLRAEDTAVYYCAREGYGFSSFEYWGQGTLVTVSS
VL: DIQMTQSPSSLSASVGDRVTITCKSSQTLLYSGNQKNYLAWYQQKPGKAPKLLISWASTRQSGVPSRFSGSGSGTDFTLTISSLQPEDFATYYCQQYFATPITFGQGTKVEIKR
notes: Human IgG1, kappa
Take B3: the binding result in test [2], in test [3], in test [4], in test [5], in test [6] and in test [7] was “binds” throughout.
